According to patent US20240400708A1:

B1: feline IgG1a S252H/S434Y (antibody, part only; not given: Variable domains, not shown: another chain or arm of the molecule)
constant: ASTTAPSVFPLAPSCGTTSGATVALACLVLGYFPEPVTVSWNSGALTSGVHTFPAVLQASGLYSLSSMVTVPSSRWLSDTFTCNVAHPPSNTKVDKTVRKTDHPPGPKPCDCPKCPPPEMLGGPSIFIFPPKPKDTLHISRTPEVTCLVVDLGPDDSDVQITWFVDNTQVYTAKTSPREEQFNSTYRVVSVLPILHQDWLKGKEFKCKVNSKSLPSPIERTISKAKGQPHEPQVYVLPPAQEELSRNKVSVTCLIKSFHPPDIAVEWEITGQPEPENNYRTTPPQLDSDGTYFVYSKLSVDRSHWQRGNTYTCSVSHEALHYHHTQKSLTQSPGK
B2: feline IgG1a S252Y/S428M/Q311Y (antibody, part only; not given: Variable domains, not shown: another chain or arm of the molecule)
constant: ASTTAPSVFPLAPSCGTTSGATVALACLVLGYFPEPVTVSWNSGALTSGVHTFPAVLQASGLYSLSSMVTVPSSRWLSDTFTCNVAHPPSNTKVDKTVRKTDHPPGPKPCDCPKCPPPEMLGGPSIFIFPPKPKDTLYISRTPEVTCLVVDLGPDDSDVQITWFVDNTQVYTAKTSPREEQFNSTYRVVSVLPILHYDWLKGKEFKCKVNSKSLPSPIERTISKAKGQPHEPQVYVLPPAQEELSRNKVSVTCLIKSFHPPDIAVEWEITGQPEPENNYRTTPPQLDSDGTYFVYSKLSVDRSHWQRGNTYTCSVMHEALHSHHTQKSLTQSPGK
B3: feline IgG1a S252M/S434N (antibody, part only; not given: Variable domains, not shown: another chain or arm of the molecule)
constant: ASTTAPSVFPLAPSCGTTSGATVALACLVLGYFPEPVTVSWNSGALTSGVHTFPAVLQASGLYSLSSMVTVPSSRWLSDTFTCNVAHPPSNTKVDKTVRKTDHPPGPKPCDCPKCPPPEMLGGPSIFIFPPKPKDTLMISRTPEVTCLVVDLGPDDSDVQITWFVDNTQVYTAKTSPREEQFNSTYRVVSVLPILHQDWLKGKEFKCKVNSKSLPSPIERTISKAKGQPHEPQVYVLPPAQEELSRNKVSVTCLIKSFHPPDIAVEWEITGQPEPENNYRTTPPQLDSDGTYFVYSKLSVDRSHWQRGNTYTCSVSHEALHNHHTQKSLTQSPGK
B4: feline IgG1a S252Y/S428M/D312P (antibody, part only; not given: Variable domains, not shown: another chain or arm of the molecule)
constant: ASTTAPSVFPLAPSCGTTSGATVALACLVLGYFPEPVTVSWNSGALTSGVHTFPAVLQASGLYSLSSMVTVPSSRWLSDTFTCNVAHPPSNTKVDKTVRKTDHPPGPKPCDCPKCPPPEMLGGPSIFIFPPKPKDTLYISRTPEVTCLVVDLGPDDSDVQITWFVDNTQVYTAKTSPREEQFNSTYRVVSVLPILHQPWLKGKEFKCKVNSKSLPSPIERTISKAKGQPHEPQVYVLPPAQEELSRNKVSVTCLIKSFHPPDIAVEWEITGQPEPENNYRTTPPQLDSDGTYFVYSKLSVDRSHWQRGNTYTCSVMHEALHSHHTQKSLTQSPGK
B5: feline IgG1a D312R (antibody, part only; not given: Variable domains, not shown: another chain or arm of the molecule)
constant: ASTTAPSVFPLAPSCGTTSGATVALACLVLGYFPEPVTVSWNSGALTSGVHTFPAVLQASGLYSLSSMVTVPSSRWLSDTFTCNVAHPPSNTKVDKTVRKTDHPPGPKPCDCPKCPPPEMLGGPSIFIFPPKPKDTLSISRTPEVTCLVVDLGPDDSDVQITWFVDNTQVYTAKTSPREEQFNSTYRVVSVLPILHQRWLKGKEFKCKVNSKSLPSPIERTISKAKGQPHEPQVYVLPPAQEELSRNKVSVTCLIKSFHPPDIAVEWEITGQPEPENNYRTTPPQLDSDGTYFVYSKLSVDRSHWQRGNTYTCSVSHEALHSHHTQKSLTQSPGK
B6: feline IgG1a S252Y/S428M (antibody, part only; not given: Variable domains, not shown: another chain or arm of the molecule)
constant: ASTTAPSVFPLAPSCGTTSGATVALACLVLGYFPEPVTVSWNSGALTSGVHTFPAVLQASGLYSLSSMVTVPSSRWLSDTFTCNVAHPPSNTKVDKTVRKTDHPPGPKPCDCPKCPPPEMLGGPSIFIFPPKPKDTLYISRTPEVTCLVVDLGPDDSDVQITWFVDNTQVYTAKTSPREEQFNSTYRVVSVLPILHQDWLKGKEFKCKVNSKSLPSPIERTISKAKGQPHEPQVYVLPPAQEELSRNKVSVTCLIKSFHPPDIAVEWEITGQPEPENNYRTTPPQLDSDGTYFVYSKLSVDRSHWQRGNTYTCSVMHEALHSHHTQKSLTQSPGK
B7: feline IgG1a S252M/S428M/S434N/H436Y (antibody, part only; not given: Variable domains, not shown: another chain or arm of the molecule)
constant: ASTTAPSVFPLAPSCGTTSGATVALACLVLGYFPEPVTVSWNSGALTSGVHTFPAVLQASGLYSLSSMVTVPSSRWLSDTFTCNVAHPPSNTKVDKTVRKTDHPPGPKPCDCPKCPPPEMLGGPSIFIFPPKPKDTLMISRTPEVTCLVVDLGPDDSDVQITWFVDNTQVYTAKTSPREEQFNSTYRVVSVLPILHQDWLKGKEFKCKVNSKSLPSPIERTISKAKGQPHEPQVYVLPPAQEELSRNKVSVTCLIKSFHPPDIAVEWEITGQPEPENNYRTTPPQLDSDGTYFVYSKLSVDRSHWQRGNTYTCSVMHEALHNHYTQKSLTQSPGK
B8: feline IgG1a S252Y/S428M/Q311W (antibody, part only; not given: Variable domains, not shown: another chain or arm of the molecule)
constant: ASTTAPSVFPLAPSCGTTSGATVALACLVLGYFPEPVTVSWNSGALTSGVHTFPAVLQASGLYSLSSMVTVPSSRWLSDTFTCNVAHPPSNTKVDKTVRKTDHPPGPKPCDCPKCPPPEMLGGPSIFIFPPKPKDTLYISRTPEVTCLVVDLGPDDSDVQITWFVDNTQVYTAKTSPREEQFNSTYRVVSVLPILHWDWLKGKEFKCKVNSKSLPSPIERTISKAKGQPHEPQVYVLPPAQEELSRNKVSVTCLIKSFHPPDIAVEWEITGQPEPENNYRTTPPQLDSDGTYFVYSKLSVDRSHWQRGNTYTCSVMHEALHSHHTQKSLTQSPGK
B9: feline IgG1a S252Y/S428M/L314K (antibody, part only; not given: Variable domains, not shown: another chain or arm of the molecule)
constant: ASTTAPSVFPLAPSCGTTSGATVALACLVLGYFPEPVTVSWNSGALTSGVHTFPAVLQASGLYSLSSMVTVPSSRWLSDTFTCNVAHPPSNTKVDKTVRKTDHPPGPKPCDCPKCPPPEMLGGPSIFIFPPKPKDTLYISRTPEVTCLVVDLGPDDSDVQITWFVDNTQVYTAKTSPREEQFNSTYRVVSVLPILHQDWKKGKEFKCKVNSKSLPSPIERTISKAKGQPHEPQVYVLPPAQEELSRNKVSVTCLIKSFHPPDIAVEWEITGQPEPENNYRTTPPQLDSDGTYFVYSKLSVDRSHWQRGNTYTCSVMHEALHSHHTQKSLTQSPGK
B10: feline IgG1a S252M/S428M (antibody, part only; not given: Variable domains, not shown: another chain or arm of the molecule)
constant: ASTTAPSVFPLAPSCGTTSGATVALACLVLGYFPEPVTVSWNSGALTSGVHTFPAVLQASGLYSLSSMVTVPSSRWLSDTFTCNVAHPPSNTKVDKTVRKTDHPPGPKPCDCPKCPPPEMLGGPSIFIFPPKPKDTLMISRTPEVTCLVVDLGPDDSDVQITWFVDNTQVYTAKTSPREEQFNSTYRVVSVLPILHQDWLKGKEFKCKVNSKSLPSPIERTISKAKGQPHEPQVYVLPPAQEELSRNKVSVTCLIKSFHPPDIAVEWEITGQPEPENNYRTTPPQLDSDGTYFVYSKLSVDRSHWQRGNTYTCSVMHEALHSHHTQKSLTQSPGK
B11: feline IgG1a S252M/S428M/S434N (antibody, part only; not given: Variable domains, not shown: another chain or arm of the molecule)
constant: ASTTAPSVFPLAPSCGTTSGATVALACLVLGYFPEPVTVSWNSGALTSGVHTFPAVLQASGLYSLSSMVTVPSSRWLSDTFTCNVAHPPSNTKVDKTVRKTDHPPGPKPCDCPKCPPPEMLGGPSIFIFPPKPKDTLMISRTPEVTCLVVDLGPDDSDVQITWFVDNTQVYTAKTSPREEQFNSTYRVVSVLPILHQDWLKGKEFKCKVNSKSLPSPIERTISKAKGQPHEPQVYVLPPAQEELSRNKVSVTCLIKSFHPPDIAVEWEITGQPEPENNYRTTPPQLDSDGTYFVYSKLSVDRSHWQRGNTYTCSVMHEALHNHHTQKSLTQSPGK

What was measured:
[1] = target: feline FcRn complex (FcRn-α subunit and β-microglobulin), biotin labeled (feline); assay: SPR, pH 7.4
[2] = target: feline FcRn complex (FcRn-α subunit and β-microglobulin), biotin labeled (feline); assay: SPR, pH 6

| Kd [1] [nM] | Kd [2] [nM] | Binder |
| --- | --- | --- |
| 12.5 | 0.14 | B1 |
| 39.9 | 2.4 | B2 |
| 33.8 | 14.8 | B3 |
| 25.3 | 0.796 | B4 |
| 25 | 6.91 | B5 |
| 39.2 | 2.58 | B6 |
| 28.7 | 20.5 | B7 |
| 18.8 | 0.506 | B8 |
| 25 | 2.13 | B9 |
| 19.5 | 7.27 | B10 |
| 15.3 | 8.51 | B11 |
